This is an account of results in PMC11078644, “Nesprin-2 is a novel scaffold protein for telethonin and FHL-2 in the cardiomyocyte sarcomere” (The Journal of Biological Chemistry, 2024).

The labels stand for the following.
B1: HA-tagged telethonin WT, purified recombinant protein, without PKD pre-treatment [not stated] / GST-nesprin-2 SR51-53 (amino acids 6018-6354) [human] (parent)
chain 1: MATSELSCEVSEENCERREAFWAEWKDLTLSTRPEEGCSLHEEDTQRHETYHQQGQCQVLVQRSPWLMMRMGILGRGLQEYQLPYQRVLPLPIFTPAKMGATKEEREDTPIQLQELLALETALGGQCVDRQEVAEITKQLPPVVPVSKPGALRRSLSRSMSQEAQRG
chain 2: KETFAFIQQLDKNMSNLRTWLARIESELSKPVVYDVCDDQEIQKRLAEQQDLQRDIEQHSAGVESVFNICDVLLHDSDACANETECDSIQQTTRSLDRRWRNICAMSMERRMKIEETWRLWQKFLDDYSRFEDWLKSAERTAACPNSSEVLYTSAKEELKRFEAFQRQIHERLTQLELINKQYRRLARENRTDTASRLKQMVHEGNQRWDNLQRRVTAVLRRLRHFTNQREEFEGTRESILVWLTEMDLQLTNVEHFSESDADDKMRQLNGFQQEITLNTNKIDQLIVFGEQLIQKSEPLDAVLIEDELEELHRYCQEVFGRVSRFHRRLTSCTPGL

Variants of B1 are the subject of this assay. The assay is described as follows: GST pull-down, densitometry. Conditions: with GST-nesprin-2 SR51-53 (amino acids 6018-6354) [human]; without PKD pre-treatment (P-); n = 5; parent: 1; read off a plot.
With chain 1 MATSELSCEVSEENCERREAFWAEWKDLTLSTRPEEGCSLHEEDTQRHETYHQQGQCQVLVQRSPWLMMRMGILGRGLQEYQLPYQRVLPLPIFTPAKMGATKEEREDTPIQLQELLALETALGGQCVDRQEVAEITKQLPPVVPVSKPGALRRSLARSMAQEAQRG, the ratio to parent was 1.1.
